Reference: publication doi:10.1101/2023.10.06.561269 (bioRxiv, 2023)

B1: V. cholerae FtsE (natural protein)
chain: MIRFQQVSKAYRGGRQALQKVDFHLRRGEMAFLGGHSGAGKSTLLKLICAIERPTDGKISFNGHDITRIPNKDIPFLRRNIGIVFQDHRLLMDRSIYDNVALPMRIESISENEIKRRVSAALDKTGLLDKARCLPSQLSGGEQQRVGIARAVVNRPTLLLADEPTGNLDPELSSRVLRLFEEFNRAGVTILLATHDIHLVNSRPQYRHLELNQGFLSEVADYGR
B2: V. cholerae FtsX (natural protein)
chain: MAVKPGNQKISKTTKSTKSKPRDVKRAKTDSFLAIHFKQAKASFAALWRRPLGNILTLAVISMALALPASLYLLSKNIASVAERVAEPSQLSVYLHIDTPEPRIIVLKDDLERRDEIAKVKYISPQQGLDDLSQYAGFEQAISLLDNATLPAVLVVTPKVDSREQIQTLAKALQAEEGVTDVRMDEDWFARLDAIRHLATIVVISLSSLMLMSVFLIVGNTLRFNVQANKEEIQTMKLIGATDAYILRPYLYSGMWFGLLGAVAAWLLTALMTILLNGAVEALAQLYDSRFRLIGLGWDESLLLLMLGVFLGCVAAKVSAKRHLKEIEPV

Biological target: the molecule itself
Test: cryo-EM structure

Protein	stoichiometry N
B1	2
B2	2
